Series [1] relates to PNMT. Briefly: PNMT enzyme activity assay of recombinant allozymes (14C-SAM methylation of octopamine). The series is classed as biochemical, human. The conditions noted are these: recombinant allozyme in COS-1 cell homogenate; 65.9 μM octopamine, 24.22 μM 14C-SAM; corrected for transfection efficiency. An excerpt:
Recombinant PNMT Expression Constructs and Allozyme Expression: PNMT cDNA sequences for the three non-synonymous cSNPs that were observed during the resequencing experiments were created using the QuickChange Site-Directed Mutagenesis kit (Stratagene, La Jolla, Calif.), using the wild type PNMT cDNA open reading frame (ORF) in the pUni/V5-His-TOPO (pUni) vector (Invitrogen) as template. Specifically, the full-length wild type ORF (GenBank accession number J03727) was amplified using human brain Marathon-Ready cDNA (Clontech) as template. The resultant PNMT cDNA was subcloned into pUni, a vector that is only 2.3 kilobases in length, so it is well suited for performing “circular PCR” during site-directed mutagenesis. […]
PNMT Enzyme Activity: PNMT activity was measured using a method based on that of Molnicoff et al. (1971) J. Pharmacol. Exp. Ther. 178(3):425-431. […] “Blank” samples included the same quantity of COS-115,000×g supernatant from cells that were transfected with “empty” pCR3.1 expression vector, making it possible to correct for endogenous activity. Reaction mixtures were incubated at 37° C. for 30 minutes, and reactions were stopped with 500 μl Borate Buffer (pH 10). ^14C-N-methyl-octopamine was extracted into toluene containing 20% isoamyl alcohol, and radioactivity of the extracted ^14C-N-methyl-octopamine was measured in a liquid scintillation counter. […]

The test system of series [2] is PNMT. Briefly: Substrate kinetics: apparent Km values of recombinant PNMT allozymes for octopamine and SAM. The format is biochemical, human. Particulars: recombinant allozyme from COS-1 cells. As for the experimental part: Expression constructs for the wild type and variant PNMT sequences were transfected into COS-1 cells using the TransFast™ reagent (Promega), with a 1:1 charge ratio. pSV-β-Galactosidase (Promega) was co-transfected as an internal control to make it possible to correct for transfection efficiency. The COS-1 cells were harvested after 48 hours and were homogenized with a Polytron homogenizer (Brinkmann Instruments, Westbury, N.Y.) in 25 mM potassium phosphate buffer, pH 7.8 that contained 1 mM dithiothreitol (DTT) and 1 mM EDTA. Cell homogenates were centrifuged at 15,000×g for 15 minutes, and the resultant supernatant preparations were used for enzyme assays and substrate kinetic studies.
Estimating Apparent Km Values: To estimate apparent Km values of PNMT for the octopamine substrate, a series of octopamine and SAM concentrations were tested with the recombinant allozymes. Blanks for each substrate concentration were included by assaying COS-1 cell cytosol after transfection with empty […] vector. […] Apparent Km values were calculated using the method of Wilkinson with a computer program written by Cleland. Wilkinson supra; and Cleland supra.

Where two headings read alike, the source gives them in different places.

B1: WT: recombinant wild type (reference) human PNMT polypeptide, SEQ ID NO:8, expressed in COS-1 cells (protein)
chain: MSGADRSPNAGAAPDSAPGQAAVASAYQRFEPRAYLRNNYAPPRGDLCNPNGVGPWKLRCLAQTFATGEVSGRTLIDIGSGPTVYQLLSACSHFEDITMTDFLEVNRQELGRWLQEEPGAFNWSMYSQHACLIEGKGECWQDKERQLRARVKRVLPIDVHQPQPLGAGSPAPLPADALVSAFCLEAVSPDLASFQRALDHITTLLRPGGHLLLIGALEESWYLAGEARLTVVPVSEEEVREALVRSGYKVRDLRTYIMPAHLQTGVDDVKGVFFAWAQKVGL
modifications: Homo sapien
As usually defined, the Km is the concentration of substrate that gives half-maximal velocity. With B1, the “% WT Enzyme activity” value in the series with PNMT [1] came out at 100 % WT. The Michaelis constant (Km) with PNMT [2] (substrate SAM, read-out: Apparent Km (SAM)) turned out to be 6.6 µM; in the series on PNMT [2] (substrate octopamine, listed as WT PNMT protein, read-out: Apparent Km (octopamine)) it was 13.6 µM; in the series on PNMT [2] (substrate octopamine, read-out: Apparent Km (octopamine)), 23.5 ± 3.1 µM.
